Earlier results, collected in patent US20250326839A1, “TREATMENT OF DISEASES RELATED TO COLONY-STIMULATING FACTOR 1 RECEPTOR DYSFUNCTION USING TREM2 AGONISTS” (Vigil Neuroscience, Inc., priority 2020, published 2025).
Residue numbers refer to the chain shown, from its start. In names and notes the source's numbering stands.

T1: TREM2 (Homo sapiens, UniProt Q9NZC2)
T1 sequence (Q9NZC2 19-230): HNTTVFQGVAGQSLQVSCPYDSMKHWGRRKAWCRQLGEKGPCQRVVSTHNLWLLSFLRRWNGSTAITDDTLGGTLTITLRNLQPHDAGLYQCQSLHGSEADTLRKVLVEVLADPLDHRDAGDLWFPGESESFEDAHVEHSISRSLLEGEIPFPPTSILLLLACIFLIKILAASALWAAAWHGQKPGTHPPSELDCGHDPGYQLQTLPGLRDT

B1: V36: 6E7 variant: VH I34L, Q99S; VL L54R, F94Y (antibody, V domains shown)
VH: EVQLVQSGAEVKKPGESLKISCKGSGYSFTSYWLAWVRQMPGKGLEWMGIIYPGDSDTRYSPSFQGQVTISADKSISTAYLQWSSLKASDTAMYFCARSRTFYYDSSDYFDYWGQGTLVTVSS
VL: DIQMTQSPSSVSASVGDRVTITCRASQGISSWLAWYQQKPGKAPKLLIYAASSRQNGVPSRFSGSGSGTDFTLTISSLQPEDFATYFCQQADSYPRTFGQGTKLEIK
B2: V60: 6E7 variant: VH S28H, T58V, F110S; VL N56R, Q89G (antibody, V domains shown)
VH: B1 VH with S28H, L34I, T58V, S99Q, F110S
VL: B1 VL with R54L, N56R, Q89G, Y94F
B3: V61: 6E7 variant: VH T30S, S61N, Q99G; VL Q55V, F94L (antibody, V domains shown)
VH: B1 VH with T30S, L34I, S61N, S99G
VL: B1 VL with R54L, Q55V, Y94L
B4: V74: 6E7 variant: VH T30A, T58V, Q99G; VL N56L (antibody, V domains shown)
VH: B1 VH with T30A, L34I, T58V, S99G
VL: B1 VL with R54L, N56L, Y94F
B5: V39: 6E7 variant: VH T30G, S61N, Q99G; VL Q55V, F94S (antibody, V domains shown)
VH: B1 VH with T30G, L34I, S61N, S99G
VL: B1 VL with R54L, Q55V, Y94S
B6: V63: 6E7 variant: VH T30R, Q99S; VL N56R, S93R (antibody, V domains shown)
VH: B1 VH with T30R, L34I
VL: B1 VL with R54L, N56R, S93R, Y94F
B7: V52: 6E7 variant: VH T30E, Q99G; VL N56R, S93R (antibody, V domains shown)
VH: B1 VH with T30E, L34I, S99G
VL: B1 VL with R54L, N56R, S93R, Y94F
B8: V72: 6E7 variant: VH A35G, Q99G; VL Q55V, F94Y (antibody, V domains shown)
VH: B1 VH with L34I, A35G, S99G
VL: B1 VL with R54L, Q55V
B9: V37: 6E7 variant: VH F29H, Q65A, Q99S; VL N56W, F94Y (antibody, V domains shown)
VH: B1 VH with F29H, L34I, Q65A
VL: B1 VL with R54L, N56W
B10: V40: 6E7 variant: VH T30G, T58V, F110S; VL N56L, S93R (antibody, V domains shown)
VH: B1 VH with T30G, L34I, T58V, S99Q, F110S
VL: B1 VL with R54L, N56L, S93R, Y94F
B11: V50: 6E7 variant: VH T30G, I50V, F110L; VL L54R, F94L (antibody, V domains shown)
VH: B1 VH with T30G, L34I, I50V, S99Q, F110L
VL: B1 VL with Y94L
B12: V73: 6E7 variant: VH T30G, S63G, Q99G; VL L54R, F94Y (antibody, V domains shown)
VH: B1 VH with T30G, L34I, S63G, S99G
VL: B1 VL
B13: V62: 6E7 variant: VH T30G, S61A, D108G; VL N56R, Q89G (antibody, V domains shown)
VH: B1 VH with T30G, L34I, S61A, S99Q, D108G
VL: B1 VL with R54L, N56R, Q89G, Y94F
B14: V38: 6E7 variant: VH T30G, T58V; VL L54R, F94H (antibody, V domains shown)
VH: B1 VH with T30G, L34I, T58V, S99Q
VL: B1 VL with Y94H
B15: V75: 6E7 variant: VH Q99G; VL N56A, F94Y (antibody, V domains shown)
VH: B1 VH with L34I, S99G
VL: B1 VL with R54L, N56A
B16: V51: 6E7 variant: VH T58V, Q99G, Y112N; VL L54R (antibody, V domains shown)
VH: B1 VH with L34I, T58V, S99G, Y112N
VL: B1 VL with Y94F
B17: V49: 6E7 variant: VH T30N, I50T, Y60L, Q99S; VL L54R, F94Y (antibody, V domains shown)
VH: B1 VH with T30N, L34I, I50T, Y60L
VL: B1 VL
B18: V64: 6E7 variant: VH T30Q, Q99G; VL Q55A, F94Y (antibody, V domains shown)
VH: B1 VH with T30Q, L34I, S99G
VL: B1 VL with R54L, Q55A
B19: V48: 6E7 variant: VH T30G, T58V, Q99M; VL N56T, F94L (antibody, V domains shown)
VH: B1 VH with T30G, L34I, T58V, S99M
VL: B1 VL with R54L, N56T, Y94L

target: T1, TREM2; conditions: 1st screen, 10 nM Ab concentration (values not marked *); cited from earlier work

Molecule	Binding Signal (fold over 6E7 parental antibody) 1st screen 110 nM or 10 nM
B1	3.38 fold over 6E7 parental antibod
B2	3.26 fold over 6E7 parental antibod
B3	5.08 fold over 6E7 parental antibod
B4	3.94 fold over 6E7 parental antibod
B5	6.15 fold over 6E7 parental antibod
B6	3.76 fold over 6E7 parental antibod
B7	3.00 fold over 6E7 parental antibod
B8	3.64 fold over 6E7 parental antibod
B9	3.46 fold over 6E7 parental antibod
B10	4.48 fold over 6E7 parental antibod
B11	4.10 fold over 6E7 parental antibod
B12	5.12 fold over 6E7 parental antibod
B13	2.49 fold over 6E7 parental antibod
B14	4.34 fold over 6E7 parental antibod
B15	4.64 fold over 6E7 parental antibod
B16	2.81 fold over 6E7 parental antibod
B17	6.51 fold over 6E7 parental antibod
B18	5.41 fold over 6E7 parental antibod
B19	2.42 fold over 6E7 parental antibod

same assay, conditions: 2nd screen, 2 nM; cited from earlier work

Molecule	Binding Signal (fold over 6E7 parental antibody) 2nd screen 2 nM
B1	4.00 fold over 6E7 parental antibod
B2	3.35 fold over 6E7 parental antibod
B3	3.63 fold over 6E7 parental antibod
B4	2.54 fold over 6E7 parental antibod
B5	5.11 fold over 6E7 parental antibod
B6	4.91 fold over 6E7 parental antibod
B7	1.78 fold over 6E7 parental antibod
B8	2.50 fold over 6E7 parental antibod
B9	3.69 fold over 6E7 parental antibod
B10	3.41 fold over 6E7 parental antibod
B11	3.39 fold over 6E7 parental antibod
B12	4.17 fold over 6E7 parental antibod
B13	1.87 fold over 6E7 parental antibod
B14	3.44 fold over 6E7 parental antibod
B15	3.74 fold over 6E7 parental antibod
B16	1.83 fold over 6E7 parental antibod
B17	5.02 fold over 6E7 parental antibod
B18	4.88 fold over 6E7 parental antibod
B19	2.30 fold over 6E7 parental antibod

same assay, conditions: 2nd screen, 10 nM; cited from earlier work

Molecule	Binding Signal (fold over 6E7 parental antibody) 2nd screen 10 nM
B1	3.44 fold over 6E7 parental antibod
B2	3.63 fold over 6E7 parental antibod
B3	5.22 fold over 6E7 parental antibod
B4	4.01 fold over 6E7 parental antibod
B5	5.81 fold over 6E7 parental antibod
B6	3.71 fold over 6E7 parental antibod
B7	3.09 fold over 6E7 parental antibod
B8	4.01 fold over 6E7 parental antibod
B9	3.49 fold over 6E7 parental antibod
B10	4.16 fold over 6E7 parental antibod
B11	4.16 fold over 6E7 parental antibod
B12	5.44 fold over 6E7 parental antibod
B13	2.89 fold over 6E7 parental antibod
B14	4.36 fold over 6E7 parental antibod
B15	4.52 fold over 6E7 parental antibod
B16	3.18 fold over 6E7 parental antibod
B17	6.58 fold over 6E7 parental antibod
B18	5.48 fold over 6E7 parental antibod
B19	2.54 fold over 6E7 parental antibod
